Assay results published in patent publication US20150168399A1 (INSERM INSTITUT NATIONAL DE LA SANTE ET DE LA RECHERCHE …, published 2015).

Tests used:
[1] = target: recombinant human endocan (Human active Endocan 1-165, SEQ ID NO: 1) (human) (UniProt Q9NQ30); experiment: cell-based or functional assay
[2] = target: human leukocyte integrin LFA-1 (CD11a/CD18) on Jurkat cells or human NK cells (human) (UniProt P20701); experiment: cell-based or functional assay
[3] = target: T1, recombinant human endocan (Human active Endocan 1-165, SEQ ID NO: 1)
T1 chain: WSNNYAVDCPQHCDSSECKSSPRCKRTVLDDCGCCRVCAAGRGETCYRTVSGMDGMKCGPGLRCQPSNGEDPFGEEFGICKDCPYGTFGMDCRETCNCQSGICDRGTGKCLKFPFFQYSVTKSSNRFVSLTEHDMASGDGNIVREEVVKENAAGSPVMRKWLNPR

[4] = target: T2, human leukocyte integrin LFA-1 (CD11a/CD18) on Jurkat cells or human NK cells (human, UniProt P20701 26-1170; P05107 23-769); experiment: co-immunoprecipitation from Jurkat lysates with HI111 and mab24
T2 construct: whole, on cells; also called CD11a/CD18 integrin; endocan's receptor
T2 sequence (P20701 26-1170, chain 1 of 2): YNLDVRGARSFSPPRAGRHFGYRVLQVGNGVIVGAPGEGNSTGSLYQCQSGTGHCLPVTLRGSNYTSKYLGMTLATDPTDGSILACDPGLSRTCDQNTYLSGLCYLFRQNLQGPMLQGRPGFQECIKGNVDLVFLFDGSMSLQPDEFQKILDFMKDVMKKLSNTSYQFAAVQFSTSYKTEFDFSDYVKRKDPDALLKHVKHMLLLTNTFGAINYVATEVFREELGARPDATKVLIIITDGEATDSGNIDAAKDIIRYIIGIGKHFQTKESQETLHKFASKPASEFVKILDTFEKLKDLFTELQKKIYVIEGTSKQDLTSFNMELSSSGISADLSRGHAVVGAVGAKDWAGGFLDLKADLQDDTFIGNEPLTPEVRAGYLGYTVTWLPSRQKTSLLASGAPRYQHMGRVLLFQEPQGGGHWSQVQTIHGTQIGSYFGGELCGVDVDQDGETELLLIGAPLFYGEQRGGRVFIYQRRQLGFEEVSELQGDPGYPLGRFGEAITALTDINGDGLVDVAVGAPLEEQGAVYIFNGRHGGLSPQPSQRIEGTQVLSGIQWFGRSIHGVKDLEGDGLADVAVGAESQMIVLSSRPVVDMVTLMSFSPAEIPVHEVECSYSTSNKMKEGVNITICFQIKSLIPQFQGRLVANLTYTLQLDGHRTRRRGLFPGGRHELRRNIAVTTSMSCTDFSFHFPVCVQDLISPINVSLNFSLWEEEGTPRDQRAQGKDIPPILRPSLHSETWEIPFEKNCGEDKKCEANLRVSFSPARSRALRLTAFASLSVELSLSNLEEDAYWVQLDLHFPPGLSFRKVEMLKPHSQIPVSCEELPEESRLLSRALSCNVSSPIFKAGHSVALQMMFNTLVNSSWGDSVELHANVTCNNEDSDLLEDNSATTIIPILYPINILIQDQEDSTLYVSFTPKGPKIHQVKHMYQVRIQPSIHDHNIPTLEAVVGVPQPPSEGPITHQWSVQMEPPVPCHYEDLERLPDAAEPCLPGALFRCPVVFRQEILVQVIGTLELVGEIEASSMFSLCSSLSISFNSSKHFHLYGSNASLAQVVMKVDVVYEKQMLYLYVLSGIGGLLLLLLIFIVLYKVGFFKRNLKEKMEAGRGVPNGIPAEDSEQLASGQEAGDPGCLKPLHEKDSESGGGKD
T2 sequence (P05107 23-769, chain 2 of 2): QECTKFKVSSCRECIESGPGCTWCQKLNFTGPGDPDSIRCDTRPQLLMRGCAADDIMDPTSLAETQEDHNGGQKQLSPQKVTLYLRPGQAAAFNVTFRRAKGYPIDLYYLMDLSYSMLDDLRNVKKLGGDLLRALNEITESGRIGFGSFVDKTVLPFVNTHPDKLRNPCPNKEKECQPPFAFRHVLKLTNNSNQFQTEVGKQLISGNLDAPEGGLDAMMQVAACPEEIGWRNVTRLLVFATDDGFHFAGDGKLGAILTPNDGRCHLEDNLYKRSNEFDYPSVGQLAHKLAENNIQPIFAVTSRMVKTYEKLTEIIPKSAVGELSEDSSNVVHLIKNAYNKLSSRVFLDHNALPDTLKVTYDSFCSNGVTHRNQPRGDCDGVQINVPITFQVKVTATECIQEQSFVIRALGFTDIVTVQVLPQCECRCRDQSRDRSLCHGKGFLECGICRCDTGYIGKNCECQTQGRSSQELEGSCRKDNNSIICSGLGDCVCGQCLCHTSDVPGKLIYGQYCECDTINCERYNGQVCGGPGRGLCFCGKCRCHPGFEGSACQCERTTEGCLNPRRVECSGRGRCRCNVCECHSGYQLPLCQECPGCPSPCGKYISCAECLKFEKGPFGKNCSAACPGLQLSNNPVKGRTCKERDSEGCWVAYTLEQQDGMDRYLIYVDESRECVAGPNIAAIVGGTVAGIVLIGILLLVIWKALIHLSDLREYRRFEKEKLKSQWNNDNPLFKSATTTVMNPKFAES
Description: FIG. 4B: Non glycanable endocan is co-immunoprecipitated with anti-LFA-1 mabs. Bound endocan from 20 to 40×10⁶ Jurkat cells were incubated with a mab against endocan (MEC36), mabs against LFA-1 (HI111 and mab24), and anti-CD3 mab as control antibody. Bound endocan is expressed in pg per 10⁶ cells.
Immunoprecipitation of Jurkat lysates containing endocan or non glycanated endocan S137A/E was performed as previously described in Bechard D et al (J Immunol. 2001; 167:3099-3106) using anti-CD11 a mabs HI111 (BD Biosciences), and mab24 (a generous gift of Dr Nancy Hogg from Leukocyte Adhesion Laboratory, Cancer Research UK, London Research Institute, London, UK).

human leukocyte integrin LFA-1 (CD11a/CD18) on Jurkat cells or human NK cells (human), sequence (P20701 26-1170, chain 1 of 2): as the sequence (P20701 26-1170, chain 1 of 2) above
human leukocyte integrin LFA-1 (CD11a/CD18) on Jurkat cells or human NK cells (human), sequence (P05107 23-769, chain 2 of 2, further chain): as the sequence (P05107 23-769, chain 2 of 2) above

Q: How did the loss of the 50 kDa band of endocan [1] turn out when “purified proteinase 3 (Sigma) (from UniProt P24158 28-248) (enzyme)” was run?
A: 1 µg/mL

Q: Which decrease in transendothelial migration of NK cells through TNF-stimulated HUVEC [2] does the source give for “monoclonal anti-human LFA-1 clone HI111 (antibody)” here?
A: 82%

B1: purified cathepsin G (Sigma) (protein)
chain: IIGGRESRPHSRPYMAYLQIQSPAGQSRCGGFLVREDFVLTAAHCWGSNINVTLGAHNIQRRENTQQHITARRAIRHPQYNQRTIQNDIMLLQLSRRVRRNRNVNPVALPRAQEGLRPGTLCTVAGWGRVSMRRGTDTLREVQLRVQRDRQCLRIFGSYDPRRQICVGDRRERKAAFKGDSGGPLLCNNVAHGIVSYGKSSGVPPEVFTRVSSFLPWIRTTMRS
Q: With B1 as the molecule, how does the “minimal concentration of cathepsin G required to cleave completely endocan in 24 h” value [3] read?
A: 0.01 µg/mL

Q: And the “reduction of the detection of MEP14-bound endocan after two hours with cathepsin G at 37° C.” value [3]?
A: from 70% to 100%

B2: purified elastase (Sigma) (protein)
chain: IVGGRRARPHAWPFMVSLQLRGGHFCGATLIAPNFVMSAAHCVANVNVRAVRVVLGAHNLSRREPTRQVFAVQRIFENGYDPVNLLNDIVILQLNGSATINANVQVAQLPAQGRRLGNGVQCLAMGWGLLGRNRGIASVLQELNVTVVTSLCRRSNVCTLVRGRQAGVCFGDSGSPLVCNGLIHGIASFVRGGCASGLYPDAFAPVAQFVNWIDSIIQ
Q: With B2 as the molecule, how does the “minimal concentration of elastase required for near complete degradation of endocan” value [3] read?
A: 0.1 µg/mL

B3: non glycanable endocan mutant (S137A/endocan) (ligand)
chain: WSNNYAVDCPQHCDSSECKSSPRCKRTVLDDCGCCRVCAAGRGETCYRTVSGMDGMKCGPGLRCQPSNGEDPFGEEFGICKDCPYGTFGMDCRETCNCQSGICDRGTGKCLKFPFFQYSVTKSSNRFVSLTEHDMAAGDGNIVREEVVKENAAGSPVMRKWLNPR
notes: Produced in 293 cells; lacks the glycan chain; also called non glycanated endocan S137A/E
Q: Does B3 bind [4]?
A: binds
